Data: US20120231006A1 (Amgen, published 2012)
Read-outs that look alike come from different tables or passages of the source.

Assays:
[1] = biological target: T1, hOrai1-mOrai1 ECL2 chimeric protein (human/mouse chimera, UniProt Q96D31 1-301); assay: FACS, 293EBNA; set-up: concentration or dose not given beside the values
T1 construct: human Orai1 with mouse ECL2; also called Ch
Procedure: (§1) FACS binding analysis. Transfected 293EBNA cells transiently expressed hOrai1-mOrai1 ECL2 or mOrai1-hOrai1 ECL2 chimera. The transfected cells were harvested at 48 hours post-transfection. Cells transfected with pcDNA3.1 were used as negative controls. Cells were washed once with ice-cold 1×PBS, resuspended in ice-cold FACS buffer (1×D-PBS+2% goat serum), and 2×10⁵ cells in 100 μL were stained per antibody combination. All antibody incubation steps were performed on ice for 1 hour. […] Next, the unlabelled antibody was detected using goat F(ab′)₂ anti-mouse or anti-human IgG-phycoerythrin (IgG-PE), followed by a wash with 200 μL of ice-cold FACS buffer before flow cytometry analysis. Unstained cells and cells stained with detecting antibodies were used as negative controls. The values of relative level of fluorescence were calculated using FCS Express (De Novo Software) and mean values were calculated using log-transformed data (geometric mean). The results of the FACS analysis are shown in FIG. 15A-B, which supports the conclusion that the hOrai1 ECL2 domain is the region of hOrai1 where antibodies of the present invention bind.
(§2) Representative results of FACS analysis of binding to the mutant hOrai1-mOrai1 ECL2 chimera described above by exemplary anti-hOrai1 antibodies of the present invention are shown in FIG. 17A-D, Table 10A and Table 10B below. Table 10A (Campaign 1) and Table 10B (Campaign 2) show the gain in binding ability of exemplary monoclonal antibodies to hOrai 1-mOrai 1 ECL2 chimera mutants as determined by FACS.

[2] = biological target: T2, hOrai1-mOrai1 ECL2 (…) protein (human/mouse chimera, UniProt Q96D31 1-301); assay: FACS, 293EBNA; set-up: concentration or dose not given beside the values
T2 construct: also called Ch
Procedure: as §1, §2
T2 sequence (Q96D31 other isoform, or with tags, fused parts or gaps): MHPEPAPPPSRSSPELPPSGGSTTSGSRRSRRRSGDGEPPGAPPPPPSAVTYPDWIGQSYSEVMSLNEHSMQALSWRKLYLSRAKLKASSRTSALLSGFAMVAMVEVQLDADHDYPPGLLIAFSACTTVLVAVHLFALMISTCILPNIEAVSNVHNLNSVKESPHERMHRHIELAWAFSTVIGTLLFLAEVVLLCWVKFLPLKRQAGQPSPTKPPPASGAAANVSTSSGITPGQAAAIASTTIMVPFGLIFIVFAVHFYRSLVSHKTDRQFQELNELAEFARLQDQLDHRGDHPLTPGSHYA

[3] = biological target: T3, hOrai1-mOrai1 ECL2 (PASGAA) protein (human/mouse chimera, UniProt Q96D31 1-301); assay: FACS, 293EBNA; set-up: concentration or dose not given beside the values
T3 construct: also called Ch
T3 sequence (Q96D31 other isoform, or with tags, fused parts or gaps): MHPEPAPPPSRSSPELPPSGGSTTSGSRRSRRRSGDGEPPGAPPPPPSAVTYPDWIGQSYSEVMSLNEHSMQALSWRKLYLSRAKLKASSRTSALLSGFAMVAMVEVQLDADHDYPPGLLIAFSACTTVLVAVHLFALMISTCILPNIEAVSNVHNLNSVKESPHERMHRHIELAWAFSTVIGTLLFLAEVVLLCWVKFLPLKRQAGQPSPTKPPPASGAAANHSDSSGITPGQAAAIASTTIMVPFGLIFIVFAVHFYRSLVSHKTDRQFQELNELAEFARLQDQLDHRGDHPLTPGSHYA
Procedure: as §1, §2

[4] = biological target: T4, hOrai1-mOrai1 ECL2 (AANVST) protein (human/mouse chimera, UniProt Q96D31 1-301); assay: FACS, 293EBNA; set-up: concentration or dose not given beside the values
T4 construct: also called Ch
T4 sequence (Q96D31 other isoform, or with tags, fused parts or gaps): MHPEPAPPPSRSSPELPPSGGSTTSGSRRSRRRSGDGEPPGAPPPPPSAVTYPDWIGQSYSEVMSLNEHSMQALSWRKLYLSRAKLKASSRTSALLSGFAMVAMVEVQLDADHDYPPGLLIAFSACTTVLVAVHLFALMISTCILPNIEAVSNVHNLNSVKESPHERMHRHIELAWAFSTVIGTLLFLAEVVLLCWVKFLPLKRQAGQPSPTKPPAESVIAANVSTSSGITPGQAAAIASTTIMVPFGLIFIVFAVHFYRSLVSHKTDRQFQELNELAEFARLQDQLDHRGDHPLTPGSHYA
Procedure: as §1, §2

[5] = biological target: T5, hOrai1-mOrai1 ECL2 (GAA) protein (human/mouse chimera, UniProt Q96D31 1-301); assay: FACS, 293EBNA; set-up: concentration or dose not given beside the values
T5 construct: also called Ch
T5 sequence (Q96D31 other isoform, or with tags, fused parts or gaps): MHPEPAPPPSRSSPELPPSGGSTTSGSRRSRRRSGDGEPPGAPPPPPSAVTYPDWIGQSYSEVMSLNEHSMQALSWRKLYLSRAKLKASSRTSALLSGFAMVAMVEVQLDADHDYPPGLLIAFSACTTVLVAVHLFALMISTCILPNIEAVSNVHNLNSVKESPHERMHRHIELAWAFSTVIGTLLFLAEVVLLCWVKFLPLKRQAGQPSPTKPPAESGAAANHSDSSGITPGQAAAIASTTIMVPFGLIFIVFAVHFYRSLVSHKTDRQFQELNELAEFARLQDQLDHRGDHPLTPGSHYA
Procedure: as §1, §2

[6] = biological target: T6, hOrai1-mOrai1 ECL2 (VST) protein (human/mouse chimera, UniProt Q96D31 1-301); assay: FACS, 293EBNA; set-up: concentration or dose not given beside the values
T6 construct: also called Ch
T6 sequence (Q96D31 other isoform, or with tags, fused parts or gaps): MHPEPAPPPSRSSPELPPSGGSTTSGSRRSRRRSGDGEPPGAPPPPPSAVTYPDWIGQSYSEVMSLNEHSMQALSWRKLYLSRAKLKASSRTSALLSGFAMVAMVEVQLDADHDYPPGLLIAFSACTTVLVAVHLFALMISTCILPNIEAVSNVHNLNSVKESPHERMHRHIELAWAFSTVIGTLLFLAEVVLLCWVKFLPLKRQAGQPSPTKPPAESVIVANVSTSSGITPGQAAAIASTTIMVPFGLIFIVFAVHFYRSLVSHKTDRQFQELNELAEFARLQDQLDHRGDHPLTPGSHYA
Procedure: as §1, §2

[7] = biological target: T7, human Orai1 (human, UniProt Q96D31 1-301); assay: cell-based or functional assay
T7 sequence (Q96D31 whole entry): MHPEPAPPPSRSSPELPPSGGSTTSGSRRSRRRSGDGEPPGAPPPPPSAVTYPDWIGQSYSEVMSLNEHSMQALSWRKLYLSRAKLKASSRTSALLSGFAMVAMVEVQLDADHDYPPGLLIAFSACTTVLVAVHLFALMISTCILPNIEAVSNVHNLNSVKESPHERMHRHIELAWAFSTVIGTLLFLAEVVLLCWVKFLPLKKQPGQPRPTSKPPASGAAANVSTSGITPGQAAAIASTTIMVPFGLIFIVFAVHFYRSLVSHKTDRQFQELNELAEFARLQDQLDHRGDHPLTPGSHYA

[8] = biological target: T8, hOrai1-mOrai1 ECL2 (SKPPA) protein (human/mouse chimera, UniProt Q96D31 1-301); assay: FACS, 293EBNA, RFI-POC grade; set-up: concentration or dose not given beside the values
T8 construct: also called Ch
T8 sequence (Q96D31 other isoform, or with tags, fused parts or gaps): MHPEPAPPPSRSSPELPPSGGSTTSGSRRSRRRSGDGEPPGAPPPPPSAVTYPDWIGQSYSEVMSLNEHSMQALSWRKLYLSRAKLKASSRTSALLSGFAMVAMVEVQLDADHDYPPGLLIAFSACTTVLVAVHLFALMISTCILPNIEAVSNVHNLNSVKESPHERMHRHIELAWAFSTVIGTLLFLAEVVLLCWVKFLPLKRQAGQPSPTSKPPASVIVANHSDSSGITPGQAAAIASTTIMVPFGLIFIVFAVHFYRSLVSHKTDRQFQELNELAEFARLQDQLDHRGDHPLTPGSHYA

[9] = biological target: T7, human Orai1; assay: cell-based or functional assay; remark: listed apart in the source
[10] = biological target: T7, human Orai1; assay: KinExA, AM1-CHO/hOrai1/hSTIM1-YFP cells
Procedure: Each equilibrium sample set was read in triplicate on the KinExA machine. For low [Ab] equilibrium samples 4 mL was run of each sample in triplicate. For high [Ab] equilibrium samples 300 μL was run of each sample in triplicate. […] For each equilibrium sample the free [Ab] would be detected by first running the coated beads through the flow cell, then after quick wash with the running buffer (1×PBS pH7.4+1% BSA+0.05% Sodium Azide) the equilibrium samples were passed through the beads followed by a quick wash with the running buffer. Then the secondary detection Ab, Gt anti Hu (H+ L) Cy5, was run through the flow cell at 1 μg/mL and 1000 μL per run. The KinExA voltage output signal was then used in KinExA software to calculate the Kd values for each antibody. From the plots at two different initial total [Ab] concentrations the Kd was obtained from curve fitting using n-curve analysis in KinExA Pro software (Sapidyne Instruments Inc., Boise Id.).

[11] = biological target: T7, human Orai1; assay: cell-based or functional assay; remark: listed apart in the source
[12] = biological target: T9, mOrai1-hOrai1 ECL2 chimeric protein (human/mouse chimera, UniProt Q8BWG9 1-304 (mouse entry)); assay: FACS, 293EBNA, RFI-POC grade; set-up: concentration or dose not given beside the values
T9 construct: mouse Orai1 with human ECL2; also called Ch
T9 sequence (Q8BWG9 other isoform, or with tags, fused parts or gaps mutant): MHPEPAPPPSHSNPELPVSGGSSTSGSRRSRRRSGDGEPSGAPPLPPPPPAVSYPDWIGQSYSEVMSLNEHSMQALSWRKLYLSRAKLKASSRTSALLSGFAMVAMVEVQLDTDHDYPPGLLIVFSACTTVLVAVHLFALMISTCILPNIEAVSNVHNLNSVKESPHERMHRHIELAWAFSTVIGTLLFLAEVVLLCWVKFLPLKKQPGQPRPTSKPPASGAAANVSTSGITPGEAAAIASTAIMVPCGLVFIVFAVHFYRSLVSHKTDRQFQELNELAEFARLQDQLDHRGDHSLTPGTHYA

[13] = biological target: T10, hOrai1-mOrai1 ECL2 (…) protein (human/mouse chimera, UniProt Q96D31 1-301); assay: FACS, 293EBNA, RFI-POC grade; set-up: concentration or dose not given beside the values
T10 construct: also called Ch
T10 sequence (Q96D31 other isoform, or with tags, fused parts or gaps): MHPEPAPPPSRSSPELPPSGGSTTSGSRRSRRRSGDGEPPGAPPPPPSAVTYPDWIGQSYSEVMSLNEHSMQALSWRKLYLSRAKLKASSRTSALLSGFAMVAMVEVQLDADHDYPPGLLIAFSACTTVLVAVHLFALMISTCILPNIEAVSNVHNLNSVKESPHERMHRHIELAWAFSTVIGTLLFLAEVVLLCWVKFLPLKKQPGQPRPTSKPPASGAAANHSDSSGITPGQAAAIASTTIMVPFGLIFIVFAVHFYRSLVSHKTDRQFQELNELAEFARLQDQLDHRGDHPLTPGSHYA

[14] = biological target: T11, hOrai1-mOrai1 ECL2 (…) protein (human/mouse chimera, UniProt Q96D31 1-301); assay: FACS, 293EBNA, RFI-POC grade; set-up: concentration or dose not given beside the values; remark: listed apart in the source
T11 construct: also called Ch
T11 sequence (Q96D31 other isoform, or with tags, fused parts or gaps): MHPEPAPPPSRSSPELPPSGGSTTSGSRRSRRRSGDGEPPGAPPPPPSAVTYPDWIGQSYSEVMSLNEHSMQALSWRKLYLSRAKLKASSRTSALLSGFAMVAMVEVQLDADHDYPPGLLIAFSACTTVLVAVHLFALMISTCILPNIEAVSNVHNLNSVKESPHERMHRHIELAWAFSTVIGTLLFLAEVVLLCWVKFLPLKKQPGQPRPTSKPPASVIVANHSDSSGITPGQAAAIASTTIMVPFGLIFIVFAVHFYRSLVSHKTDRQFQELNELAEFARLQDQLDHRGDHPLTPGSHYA

[15] = biological target: T12, hOrai1-mOrai1 ECL2 (…) protein (human/mouse chimera, UniProt Q96D31 1-301); assay: FACS, 293EBNA, RFI-POC grade; set-up: concentration or dose not given beside the values; remark: listed apart in the source
T12 construct: also called Ch
T12 sequence (Q96D31 other isoform, or with tags, fused parts or gaps): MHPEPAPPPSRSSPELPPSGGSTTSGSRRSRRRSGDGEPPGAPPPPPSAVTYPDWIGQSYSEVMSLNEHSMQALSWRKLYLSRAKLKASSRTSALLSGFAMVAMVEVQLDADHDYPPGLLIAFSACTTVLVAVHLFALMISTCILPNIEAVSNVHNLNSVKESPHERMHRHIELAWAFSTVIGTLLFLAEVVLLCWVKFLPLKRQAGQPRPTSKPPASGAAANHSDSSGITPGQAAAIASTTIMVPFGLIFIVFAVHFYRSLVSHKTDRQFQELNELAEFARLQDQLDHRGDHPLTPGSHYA

[16] = biological target: T13, hOrai1-mOrai1 ECL2 (RPTSKPPA) protein (human/mouse chimera, UniProt Q96D31 1-301); assay: FACS, 293EBNA, RFI-POC grade; set-up: concentration or dose not given beside the values
T13 construct: also called Ch
T13 sequence (Q96D31 other isoform, or with tags, fused parts or gaps): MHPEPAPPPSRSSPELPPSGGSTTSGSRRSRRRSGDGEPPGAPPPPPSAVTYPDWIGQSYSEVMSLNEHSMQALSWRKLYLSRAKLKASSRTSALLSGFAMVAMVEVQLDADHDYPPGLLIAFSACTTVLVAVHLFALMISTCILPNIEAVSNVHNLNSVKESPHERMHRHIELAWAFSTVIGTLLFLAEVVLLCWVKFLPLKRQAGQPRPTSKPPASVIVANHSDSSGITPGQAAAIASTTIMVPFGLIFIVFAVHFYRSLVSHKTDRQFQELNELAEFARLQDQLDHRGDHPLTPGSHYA

T1 sequence (Q96D31 other isoform, or with tags, fused parts or gaps mutant): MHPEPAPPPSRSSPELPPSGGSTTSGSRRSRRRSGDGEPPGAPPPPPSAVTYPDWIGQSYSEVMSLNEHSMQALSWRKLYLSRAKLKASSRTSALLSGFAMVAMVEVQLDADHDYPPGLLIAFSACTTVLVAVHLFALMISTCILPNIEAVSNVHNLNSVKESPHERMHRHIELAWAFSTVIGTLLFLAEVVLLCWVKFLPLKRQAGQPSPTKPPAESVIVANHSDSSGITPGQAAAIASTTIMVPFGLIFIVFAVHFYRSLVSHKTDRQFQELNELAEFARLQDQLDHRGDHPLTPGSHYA

Row | percent of control (POC) of FACS Geo Mean [1] | percent of control (POC) of FACS Geo Mean [2] | percent of control (POC) of FACS Geo Mean [3] | percent of control (POC) of FACS Geo Mean [4] | percent of control (POC) of FACS Geo Mean [5] | percent of control (POC) of FACS Geo Mean [6] | IC50, NFAT-mediated luciferase assay (FIG. 6C) [7] | percent of control (POC) of FACS Geo Mean [8] | IC50 IFN-γ, whole blood Donor A, recombinant mAb [9] | IC50 IFN-γ, whole blood Donor B, recombinant mAb [9] | IC50 IL-2, whole blood Donor A, recombinant mAb [9] | IC50 IL-2, whole blood Donor B, recombinant mAb [9] | Kd [10] | Binder | also measured
1 | < 1% | < 1% | < 1% | < 1% | < 1% | < 1% | 1800 nM | 1 to 5% |  |  |  |  |  | mAb 2B4.1 (antibody, human IgG2, lambda, V domains shown) VH: QVQLVQSGAEVKKPGASVKVSCKASGYTFTDYYMHWVRQAPGQGLEWMGWINPNSGGTNYVQKFQDRVTMTRDTSITTAYMELTRLRSDDTAVYYCAREEGDYGMDVWGQGTTVTVSS VL: QSVLTQPPSVSGAPGQRVTISCTGSNSNIGTGYDVHWYQKLPGTAPRLLIYSHFNRPSGVPDRFSGSTSGTSASLAITGLQAEDEADYYCQSYDSSLSGSVFGGGTKLTVLG | 
2 |  |  |  |  |  |  |  |  | 0.59 nM | 3.59 nM | 1.42 nM | 0.87 nM |  | mAb 5A4.2 (antibody, human IgG2, lambda, V domains shown, fully human IgG2 lambda, Campaign 2) VH: QVQLVQSGAEVKKPGASVKVSCKASGYTFTDYYMNWVRQAPGQGLEWMGWINPNSGGTKYAQKFQGRVTMTRDTSIRTAYMELSRLRSDDTAVYYCSREYGGNSDWFDPWGQGTLVTVSS VL: QSVLTQPPSVSGAPGQRVTISCTGSSSNIGAGYDVHWYQQLPGTAPKLLIYGNSNRPSGVPDRFSGSKSGTSASLAITGLQAEDEADYYCQSYDNRLSDSVVIGGGTKLTVQG | 
3 |  |  |  |  |  |  |  |  | 0.52 nM | 34.8 nM | 2.08 nM | 9.52 nM |  | mAb 5B1.1 (antibody, human IgG2, lambda, V domains shown, fully human IgG2 lambda, Campaign 2; also called mAb 5Bl1.1) VH: QVQLVQSGAEVKKPGASVKVSCKASGYTFTDYYINWVRQAPGQGLEWMGWINPNSGGSSYAQKFQGRVTMTRDTSISTAHMELIRLRSDDTAVYYCARERGGIEDWFDPWGQGTLVTVSS VL: QSVLTQPPSVSGAPGQRVTISCTGSSSNIGAGYDVHWYQQLPGTAPKLLIYGNSNRPSGVPDRFSGSKSGTSASLAITKFQAEDEAVYYCQSYGSGLSGVVFGGGTKLTVLG | 
4 |  |  |  |  |  |  |  |  | 11.1 nM | 9.84 nM | 2.42 nM | 2.43 nM |  | mAb 5F2.1 (antibody, human IgG2, lambda, V domains shown, fully human IgG2 lambda, Campaign 2) VH: QVQLVQSGAEVKKPGASVKVSCKASGYTFTDYYMNWVRQAPGQGLEWMGWINPNSGGTHYAQKFQGRVTMTRDTSISTAYMELSRLRSDDTAVYYCAREYGGYSDWFDPWGQGTLVTVSS VL: QSVLTQPPSVSGAPGQRVTISCTGSRSNIGAGYDVHWYQQLPRTAPKLLIYDNSNRPSGVPDRFSGSKSGSSASLAITGLQAEDEADYYCQSYDNSLSDSVLIGGGTKLTVLG | 
5 |  |  |  |  |  |  |  |  | 0.28 nM | 10.7 nM | 1.32 nM | 2.52 nM | 0.019 nM | mAb 5F7.1 (antibody, human IgG2, lambda, fully human IgG2 lambda, Campaign 2) heavy: QVQLVQSGAEVKKPGASVKVPCKASGYTFTDYYINWVRQAPGQGLEWMGWINPNNGGTNYAQKFQGRVTMTRDTSISTAYMELRRLRSDDTAVYYCARERGGYEDWFDPWGQGTLVTVSSASTKGPSVFPLAPCSRSTSESTAALGCLVKDYFPEPVTVSWNSGALTSGVHTFPAVLQSSGLYSLSSVVTVPSSNFGTQTYTCNVDHKPSNTKVDKTVERKCCVECPPCPAPPVAGPSVFLFPPKPKDTLMISRTPEVTCVVVDVSHEDPEVQFNWYVDGVEVHNAKTKPREEQFNSTFRVVSVLTVVHQDWLNGKEYKCKVSNKGLPAPIEKTISKTKGQPREPQVYTLPPSREEMTKNQVSLTCLVKGFYPSDIAVEWESNGQPENNYKTTPPMLDSDGSFFLYSKLTVDKSRWQQGNVFSCSVMHEALHNHYTQKSLSLSPGK light: QSVLTQPPSVSGAPGQRVTISCTGSSSNIGAGFDVHWYQQLPVTAPKLLIYGNRNRPSGVPARFSGSKSGTSASLAITGLQAEDEAVYYCQSYDSSLTVFGGGTKLTVLGQPKANPTVTLFPPSSEELQANKATLVCLISDFYPGAVTVAWKADGSPVKAGVETTKPSKQSNNKYAASSYLSLTPEQWKSHRSYSCQVTHEGSTVEKTVAPTECS | 
6 | < 1% | < 1% | < 1% | < 1% | < 1% | < 1% | 2.7 nM | 5 to 40% |  |  |  |  | 0.099 nM | mAb 2D2.1 (antibody, human IgG2, lambda, V domains shown, fully human IgG2 lambda, Campaign 1; also called mAb 2D.1) VH: QVQLQQWGAGLLKPSETLSLTCAVYGGSFSGYYWSWIRQPPGKGLEWIGEIDHSGRINYNPALKSRLTISVDTSKNQFSLKLSSVTAADTAVYYCARAGSGGYEDWFDPWGQGTLVTVSS VL: QSVLTQPPSVSGAPGQRVTISCTGSSSNIGAGYNVHWYQQFPRTDPKLLIYVYNIRPSGVPDRFSGSRSGTSASLAITGLQTEDEADYYCQSYDSSLSGVVFGGGTKLTVLG | IC50, NFAT-mediated luciferase assay (FIG. 6B) [7]: 2.8 nM; IC50 IFN-g, whole blood Donor A, recombinant mAb [11]: 1.18 nM; IC50 IFN-g, whole blood Donor B, recombinant mAb [11]: 1.1 nM; IC50 IL-2, whole blood Donor A, recombinant mAb [11]: 0.49 nM; IC50 IL-2, whole blood Donor B, recombinant mAb [11]: 0.21 nM; percent of control (POC) of FACS Geo Mean [12]: 40 to 100%; percent of control (POC) of FACS Geo Mean [13]: 40 to 100%; percent of control (POC) of FACS Geo Mean [14]: 40 to 100%; percent of control (POC) of FACS Geo Mean [15]: 40 to 100%; percent of control (POC) of FACS Geo Mean [16]: 40 to 100%
7 | < 1% | < 1% | < 1% | < 1% | < 1% | < 1% | 1.8 nM | 5 to 40% |  |  |  |  | 0.04 nM | mAb 2C1.1 (antibody, human IgG2, lambda, V domains shown, fully human IgG2 lambda, Campaign 1; tested hybridoma-purified and recombinant; also called anti-hOrai1 mAb 2C1.1) VH: QVQLQQWGAGLLKPSETLSLTCAVYGGSFSGYYWSWIRQPPGKGLEWIGEIDHSGSTNYNPALKSRLTISVDTSKNQFSLKLSSVTAADTAVYYCARAGSGGYEDWFDPWGQGTLVTVSS VL: QSVLTQPPSVSGAPGQRVTISCTGSSSNIGAGYNVHWYQQFPRTDPKLLIYVYNIRPSGVPDRFSGSRSGTSASLAITGLQTEDEADYYCQSYDSSLSGVVFGGGTKLTVLG | IC50, NFAT-mediated luciferase assay (FIG. 6B) [7]: 4.4 nM; IC50 of ICRAC current block, whole-cell patch clamp, HEK-293/hOrai1/hSTIM1 BB6.3 [7]: 55.9 nM; IC50 IFN-g, whole blood Donor A, recombinant mAb [11]: 1.62 nM; IC50 IFN-g, whole blood Donor B, recombinant mAb [11]: 1.61 nM; IC50 IL-2, whole blood Donor A, recombinant mAb [11]: 0.57 nM; IC50 IL-2, whole blood Donor B, recombinant mAb [11]: 0.34 nM; percent of control (POC) of FACS Geo Mean [12]: 40 to 100%; percent of control (POC) of FACS Geo Mean [13]: 40 to 100%; percent of control (POC) of FACS Geo Mean [14]: 40 to 100%; percent of control (POC) of FACS Geo Mean [15]: 40 to 100%; percent of control (POC) of FACS Geo Mean [16]: 40 to 100%
